Source: publication doi:10.1101/2022.08.30.505852

Biological target: βCAT_(666-729), β-catenin residues 666-729 (human) (UniProt P35222)
Test: ITC

βCAT_(666-729), β-catenin residues 666-729 (human), sequence (P35222 666-729): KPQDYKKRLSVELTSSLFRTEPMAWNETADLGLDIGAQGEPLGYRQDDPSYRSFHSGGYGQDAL

TAZ1 domain of CBP (residues 346-440) (from UniProt Q92793 346-440) (domain or fragment)
Kd: 67 µM
